Laboratory results taken from the supplement of paper PMC10567573.

B1: KRT33B (parent)
chain: PAVDLNQVLNETRNQYEALVETNR

Variants of: B1
Test: protein stability index of a GFP-peptide fusion (GPS, HEK-293T) (PSI 1-6); higher = more stable
Conditions: c terminus: a fixed tail appended
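Further: lentivirally expressed fusions sorted by FACS into six bins by GFP to DsRed ratio, PSI derived from sequencing read proportions per bin multiplied by bin number.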

| Variant | protein stability index |
| --- | --- |
| PAVDLNQVLNETRHQYEALVETNR [N14H] | 3.53 |
| PAVDLNQVLNETRNRYEALVETNR [Q15R] | 4.37 |
| PAVDLNQVLNETRNVYEALVETNR [Q15V] | 3.82 |
| PAVDLNQVLNETRNLYEALVETNR [Q15L] | 2.04 |
| PAVDLNQVLNETRNFYEALVETNR [Q15F] | 2.72 |
| PAVDLNQVLNETRNWYEALVETNR [Q15W] | 2.86 |
| PAVDLNQVLNETRNDYEALVETNR [Q15D] | 4.33 |
| PAVDLNQVLNETRNTYEALVETNR [Q15T] | 4.22 |
| PAVDLNQVLNETRNAYEALVETNR [Q15A] | 3.84 |
| PAVDLNQVLNETRNMYEALVETNR [Q15M] | 1.6 |
| PAVDLNQVLNETRNYYEALVETNR [Q15Y] | 3.23 |
| PAVDLNQVLNETRNSYEALVETNR [Q15S] | 3.95 |
| PAVDLNQVLNETRNHYEALVETNR [Q15H] | 3.95 |
| PAVDLNQVLNETRNKYEALVETNR [Q15K] | 4.06 |
| PAVDLNQVLNETRNEYEALVETNR [Q15E] | 4.61 |
| PAVDLNQVLNETRNCYEALVETNR [Q15C] | 3.87 |
| PAVDLNQVLNETRNPYEALVETNR [Q15P] | 4.39 |
| PAVDLNQVLNETRNNYEALVETNR [Q15N] | 4.38 |
| PAVDLNQVLNETRNGYEALVETNR [Q15G] | 4.45 |
| PAVDLNQVLNETRNIYEALVETNR [Q15I] | 3.44 |
| PAVDLNQVLNETINQYEALVETNR [R13I] | 3.32 |
| PAVDLNQVLNETLNQYEALVETNR [R13L] | 3.46 |
| PAVDLNQVLNETMNQYEALVETNR [R13M] | 3.12 |
| PAVDLNQVLNETSNQYEALVETNR [R13S] | 4.8 |

| Variant | protein stability index |
| --- | --- |
| PAVDLNQVLNETTNQYEALVETNR [R13T] | 4.59 |
| PAVDLNQVLNETFNQYEALVETNR [R13F] | 4.15 |
| PAVDLNQVLNETWNQYEALVETNR [R13W] | 3.92 |
| PAVDLNQVLNETANQYEALVETNR [R13A] | 4.35 |
| PAVDLNQVLNETQNQYEALVETNR [R13Q] | 4.32 |
| PAVDLNQVLNETPNQYEALVETNR [R13P] | 5.18 |
| PAVDLNQVLNETVNQYEALVETNR [R13V] | 4.15 |
| PAVDLNQVLNETYNQYEALVETNR [R13Y] | 3.69 |
| PAVDLNQVLNETKNQYEALVETNR [R13K] | 3.03 |
| PAVDLNQVLNETCNQYEALVETNR [R13C] | 4.38 |
| PAVDLNQVLNETGNQYEALVETNR [R13G] | 4.35 |
| PAVDLNQVLNETHNQYEALVETNR [R13H] | 4.76 |
| PAVDLNQVLNETDNQYEALVETNR [R13D] | 4.93 |
| PAVDLNQVLNETENQYEALVETNR [R13E] | 4.86 |
| PAVDLNQVLNETNNQYEALVETNR [R13N] | 5.01 |
| PAVDLNQVLNEARNQYEALVETNR [T12A] | 2.16 |
| PAVDLNQVLNESRNQYEALVETNR [T12S] | 3.8 |
| PAVDLNQVLNERRNQYEALVETNR [T12R] | 4.89 |
| PAVDLNQVLNEWRNQYEALVETNR [T12W] | 3.09 |
| PAVDLNQVLNEYRNQYEALVETNR [T12Y] | 2.77 |
| PAVDLNQVLNEHRNQYEALVETNR [T12H] | 2.84 |
| PAVDLNQVLNEKRNQYEALVETNR [T12K] | 4.41 |
| PAVDLNQVLNEIRNQYEALVETNR [T12I] | 2.41 |
| PAVDLNQVLNEMRNQYEALVETNR [T12M] | 3.4 |

| Variant | protein stability index |
| --- | --- |
| PAVDLNQVLNEQRNQYEALVETNR [T12Q] | 2.85 |
| PAVDLNQVLNENRNQYEALVETNR [T12N] | 4.11 |
| PAVDLNQVLNECRNQYEALVETNR [T12C] | 3.24 |
| PAVDLNQVLNEGRNQYEALVETNR [T12G] | 4.32 |
| PAVDLNQVLNEPRNQYEALVETNR [T12P] | 4.52 |
| PAVDLNQVLNEDRNQYEALVETNR [T12D] | 4.61 |
| PAVDLNQVLNEFRNQYEALVETNR [T12F] | 1.85 |
| PAVDLNQVLNEERNQYEALVETNR [T12E] | 4.5 |
| PAVDLNQVLYETRNQYEALVETNR [N10Y] | 2.47 |
| PAVDLNQVLNETRNQYEALLETNR [V20L] | 3.88 |
| PAVDLNQVLNETRNQYEALKETNR [V20K] | 4.24 |
| PAVDLNQVLNETRNQYEALDETNR [V20D] | 5.39 |
| PAVDLNQVLNETRNQYEALSETNR [V20S] | 4.43 |
| PAVDLNQVLNETRNQYEALAETNR [V20A] | 2.74 |
| PAVDLNQVLNETRNQYEALIETNR [V20I] | 4.39 |
| PAVDLNQVLNETRNQYEALNETNR [V20N] | 4.45 |
| PAVDLNQVLNETRNQYEALMETNR [V20M] | 2.8 |
| PAVDLNQVLNETRNQYEALGETNR [V20G] | 4.49 |
| PAVDLNQVLNETRNQYEALFETNR [V20F] | 4.09 |
| PAVDLNQVLNETRNQYEALRETNR [V20R] | 4.43 |
| PAVDLNQVLNETRNQYEALQETNR [V20Q] | 4.94 |
| PAVDLNQVLNETRNQYEALCETNR [V20C] | 4.06 |
| PAVDLNQVLNETRNQYEALTETNR [V20T] | 4.95 |
| PAVDLNQVLNETRNQYEALEETNR [V20E] | 3.52 |

| Variant | protein stability index |
| --- | --- |
| PAVDLNQVLNETRNQYEALPETNR [V20P] | 4.34 |
| PAVDLNQVLNETRNQYEALHETNR [V20H] | 4.92 |
| PAVDLNQVLNETRNQYEALWETNR [V20W] | 3.62 |
| PAVDLNQVLNETRNQGEALVETNR [Y16G] | 5.21 |
| PAVDLNQVLNETRNQDEALVETNR [Y16D] | 4.98 |
| PAVDLNQVLNETRNQMEALVETNR [Y16M] | 4.39 |
| PAVDLNQVLNETRNQEEALVETNR [Y16E] | 4.85 |
| PAVDLNQVLNETRNQWEALVETNR [Y16W] | 3.89 |
| PAVDLNQVLNETRNQREALVETNR [Y16R] | 5.09 |
| PAVDLNQVLNETRNQCEALVETNR [Y16C] | 4.57 |
| PAVDLNQVLNETRNQAEALVETNR [Y16A] | 5.14 |
| PAVDLNQVLNETRNQHEALVETNR [Y16H] | 5.02 |
| PAVDLNQVLNETRNQLEALVETNR [Y16L] | 4.37 |
| PAVDLNQVLNETRNQVEALVETNR [Y16V] | 4.92 |
| PAVDLNQVLNETRNQIEALVETNR [Y16I] | 4.17 |
| PAVDLNQVLNETRNQSEALVETNR [Y16S] | 5.12 |
| PAVDLNQVLNETRNQTEALVETNR [Y16T] | 5.15 |
| PAVDLNQVLNETRNQNEALVETNR [Y16N] | 5.25 |
| PAVDLNQVLNETRNQQEALVETNR [Y16Q] | 5.29 |
| PAVDLNQVLNETRNQPEALVETNR [Y16P] | 5.06 |
| PAVDLNQVLNETRNQFEALVETNR [Y16F] | 3.5 |
| PAVDLNQVLNETRNQKEALVETNR [Y16K] | 4.8 |
